Measurements reported in CN117460529A (dated 2024).

T1: 细胞表面上表达的人ICOS (human, UniProt Q9Y6W8 21-199)
T1 construct: whole, on cells; also called hICOS; human ICOS on CHO-S cells
T1 sequence (looked up): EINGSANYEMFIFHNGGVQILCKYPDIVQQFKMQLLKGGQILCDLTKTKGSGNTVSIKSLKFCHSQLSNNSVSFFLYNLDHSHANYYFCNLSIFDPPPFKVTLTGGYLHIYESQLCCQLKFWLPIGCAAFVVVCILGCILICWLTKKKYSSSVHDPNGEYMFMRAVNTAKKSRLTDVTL

T2: CHO-S细胞表面上表达的小鼠ICOS (mouse, UniProt Q9WVS0 21-200)
T2 construct: whole, on cells; also called mICOS; mouse ICOS on CHO-S cells
T2 sequence (looked up): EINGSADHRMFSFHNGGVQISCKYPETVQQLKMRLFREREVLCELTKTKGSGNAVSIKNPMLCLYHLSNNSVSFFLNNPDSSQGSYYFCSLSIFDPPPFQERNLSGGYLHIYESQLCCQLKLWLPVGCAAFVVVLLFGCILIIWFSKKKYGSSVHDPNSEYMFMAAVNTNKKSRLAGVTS

T3: 人ICOS (HTRF测定) (human, UniProt Q9Y6W8 21-140, limits assumed)
T3 construct: the HTRF construct is described only in US 9,957,323; also called human ICOS; ICOS受体
T3 sequence (looked up): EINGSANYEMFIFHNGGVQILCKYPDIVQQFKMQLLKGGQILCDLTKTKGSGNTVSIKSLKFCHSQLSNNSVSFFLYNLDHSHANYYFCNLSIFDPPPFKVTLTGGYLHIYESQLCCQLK

T4: 小鼠ICOS (HTRF测定) (mouse, UniProt Q9WVS0 21-144, limits assumed)
T4 construct: the HTRF construct is described only in US 9,957,323; also called mouse ICOS; mICOS
T4 sequence (looked up): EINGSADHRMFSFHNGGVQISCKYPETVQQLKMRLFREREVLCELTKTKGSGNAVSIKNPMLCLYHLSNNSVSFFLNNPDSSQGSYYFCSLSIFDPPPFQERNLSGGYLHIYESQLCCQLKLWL


How the values were obtained:
细胞表面上表达的人ICOS [1] = target: T1, 细胞表面上表达的人ICOS; assay: Mirrorball assay on CHO-S cells expressing ICOS; total binding defined by reference antibody, non-specific by hybrid control hIgG1
CHO-S细胞表面上表达的小鼠ICOS [2] = target: T2, CHO-S细胞表面上表达的小鼠ICOS; assay: as above
细胞表面上表达的人ICOS [3] = target: T1, 细胞表面上表达的人ICOS; assay: flow cytometry on CHO-S cells expressing ICOS, purified IgG1
CHO-S细胞表面上表达的小鼠ICOS [4] = target: T2, CHO-S细胞表面上表达的小鼠ICOS; assay: as above
人ICOS (HTRF测定) = target: T3, 人ICOS (HTRF测定); assay: HTRF binding assay, HEK supernatant with human IgG1 antibody
小鼠ICOS (HTRF测定) = target: T4, 小鼠ICOS (HTRF测定); assay: as above
细胞表面上表达的人ICOS [5] = target: T1, 细胞表面上表达的人ICOS; assay: receptor occupancy on patients' CD4 memory T cells, chip cytometry

Binder	作用 (% effect) (细胞表面上表达的人ICOS [1]) [%]	作用 (% effect) (CHO-S细胞表面上表达的小鼠ICOS [2]) [%]	fold over negative control (几何平均值) (细胞表面上表达的人ICOS [3])	fold over negative control (几何平均值) (CHO-S细胞表面上表达的小鼠ICOS [4])	作用 (% effect, 等式1) (人ICOS (HTRF测定)) [%]	作用 (% effect, 等式1) (小鼠ICOS (HTRF测定)) [%]	binding result (细胞表面上表达的人ICOS [5])
CL-74570 (antibody, V domains shown) VH: EVQLVESGGGVIRPGGSLRLSCAASGFTFDDYGMSWVRQAPGKGLEWVSGINWIGDNTDYADSVKGRFTISRDNAKNSLYLQMNSLRAEDTALYYCARDYFGSGSYYNVPF VL: not shown	> 1	> 1	> 10 倍	> 10 倍	> 5	> 5	–
CL-61091 (antibody, V domains shown) VH: QVQLMQSGTEVKKPGASVKVSCKTSGYTFTTYGITWVRQAPGQGLEWMGWISAYSGDTDYAQKFQGRVTVTTDTSTNTAYMELRSLKSDDTAVYYCARSSGWPHHYGMDVWGQGTTVTVSS VL: DIVMTQSPLSLPVTPGEPASISCRSSQSLLHSNGFNYFDWYLQKPGQSPQLLIFLVSNRASGVPDRFSGSGSGTDFTLKISRVEAEDVGIYYCMQALQTPLTFGGGTKVEIK	> 1	> 1	> 10 倍	> 10 倍	> 5	> 5	–
STIM003 (antibody, V domains shown, also called KY1044; SAR445256) VH: EVQLVESGGGVVRPGGSLRLSCVASGVTFDDYGMSWVRQAPGKGLEWVSGINWNGGDTDYSDSVKGRFTISRDNAKNSLYLQMNSLRAEDTALYYCARDFYGSGSYYHVPFDYWGQGILVTVSS VL: EIVLTQSPGTLSLSPGERATLSCRASQSVSRSYLAWYQQKRGQAPRLLIYGASSRATGIPDRFSGDGSGTDFTLSISRLEPEDFAVYYCHQYDMSPFTFGPGTKVDIKR	–	–	–	–	–	–	binds
